Laboratory results: article PMC10384427

Target: SARS-CoV-2 N protein K65R, not SUMOylated (SARS-CoV-2) (UniProt P0DTC9)
Assay: FRET or BRET

## SARS-CoV-2 N protein K65R, not SUMOylated (from UniProt P0DTC9 1-419) (natural protein)
  Kd: 1380 nM
